Data on three molecules can be found in article PMC9156741, “Blocking phospholamban with VHH intrabodies enhances contractility and relaxation in heart failure” (Nature Communications, 2022).

The target in test [1] is T1, pS16 PLN peptide VI (biotin-HPDP-Cys-EKVQYLTRSAIRRApSTIEMPQQARQ-NH2) (phosphoserine at Ser 16 (pS in the printed sequence); biotin-HPDP on the N-terminal Cys (cysteine persulphide); C-terminal amidation).
T1 peptide: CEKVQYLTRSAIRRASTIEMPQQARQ
The test is described as follows: SPR; pS16 phosphorylated.

Test [2] has as its target T2, PLN peptide V (biotin-HPDP-Cys-EKVQYLTRSAIRRASTIEMPQQARQ-NH2) (biotin-HPDP on the N-terminal Cys (cysteine persulphide); C-terminal amidation).
T2 peptide: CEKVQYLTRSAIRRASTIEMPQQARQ
As to the kind of experiment: SPR.

Test [3] concerns the target T2, PLN peptide V …. As to the kind of experiment: SPR.
In test [4] the target is T3, pS16 PLN peptide VI (biotin-HPDP-Cys-EKVQYLTRSAIRRApSTIEMPQQARQ-NH2) (phosphoserine at Ser 16 (pS in the printed sequence); biotin-HPDP on the N-terminal Cys (cysteine persulphide); C-terminal amidation).
T3 construct: added N-terminal cysteine residue that carries biotin-HPDP; phospholamban (PLN), stretch of the cytoplasmic regulatory domain, phosphorylated at Ser 16; also called p16S PLN peptide; source: synthetic peptide (Bachem, Switzerland)
T3 peptide: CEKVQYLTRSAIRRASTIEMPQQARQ
As to the kind of experiment: SPR; Biacore T200; peptide V or VI immobilised on streptavidin SA chip (50-100 RU); VHH2 as analyte, single-cycle kinetics; PBS pH 7.4 + 0.05% Tween 20; bivalent analyte model; apparent Kd. To be noted: both partners purified.

The target of test [5] is T4, PLN peptide V (biotin-HPDP-Cys-EKVQYLTRSAIRRASTIEMPQQARQ-NH2) (biotin-HPDP on the N-terminal Cys (cysteine persulphide); C-terminal amidation).
T4 construct: added N-terminal cysteine residue that carries biotin-HPDP; phospholamban (PLN), stretch of the cytoplasmic regulatory domain; also called non-phosphorylated PLN peptide; source: synthetic peptide (Bachem, Switzerland)
T4 peptide: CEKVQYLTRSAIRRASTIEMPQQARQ
The test is described as above. To be noted: both partners purified.

Test [6] addresses T1, pS16 PLN peptide VI …. The test is described as follows: SPR; pS16 phosphorylated; kinetic fit.
Test [7] addresses T3, pS16 PLN peptide VI …. As to the kind of experiment: SPR; Biacore T200; peptide V or VI immobilised on streptavidin SA chip (50-100 RU); VHH as analyte, single-cycle kinetics with five increasing concentrations; PBS pH 7.4 + 0.05% Tween 20; 1:1 Langmuir model. To be noted: both partners purified.
The target of test [8] is T4, PLN peptide V …. Described as above. To be noted: both partners purified.
Test [9] addresses pS16 PLN peptide VI (biotin-HPDP-Cys-…p…-NH2). The description is as above.

B1: VHH2 B4B4 (VHH)
chain: EVQLQESGGGLVQAGGSLRLSCAASGFSFYRHAMGWFRQAPGKEREWVAEIDWEGGYTYYADSVKGRFTISRDNAKNTVYLQMNSLKPEDTAVYYCAAGRDLYAYWGQGTQVTVSSGGGSGGGSGGGSEVQLQESGGGLVQAGGSLRLSCAASGFSFYRHAMGWFRQAPGKEREWVAEIDWEGGYTYYADSVKGRFTISRDNAKNTVYLQMNSLKPEDTAVYYCAAGRDLYAYWGQGTQVTVSS
notes: N-terminal VHH B4 domain; (Gly3Ser)3 linker, as named in the methods and encoded by the printed primers; C-terminal VHH B4 domain; Bivalent VHH on one chain; also called bivalent variant of VHH B4; bivalent VHH2 B4B4; source: E. coli HB2151 (pHEN4 vector); expressed and purified according to previously described protocols
Turning to B1, the koff in test [1] was 0.0052 s⁻¹; in [3], 0.00011 s⁻¹. The Kd in test [2] turned out to be 0.1 nM; in test [4], 1 nM; in [5], 0.15 nM.

B2: VHH B4 (VHH)
VHH: EVQLQESGGGLVQAGGSLRLSCAASGFSFYRHAMGWFRQAPGKEREWVAEIDWEGGYTYYADSVKGRFTISRDNAKNTVYLQMNSLKPEDTAVYYCAAGRDLYAYWGQGTQVTVSS
notes: VHH B4, from the synthetic LlamdA phage-display VHH library (llama VHH framework); also called clone B4; source: E. coli HB2151, small-scale cultures induced with IPTG (ELISA); expressed and purified according to previously described protocols (SPR)
For B2, the dissociation rate constant (koff) is 0.18 s⁻¹ in [1] and 0.025 s⁻¹ in test [3]. Further, the Kd was 618 nM in test [6], 682 nM in [7] and 44 nM in [8].

B3: VHH C6 (VHH)
VHH: EVQLQESGGGLVQAGGSLRLSCAASGFTLYAMGWFRQAPGKEREFVAAITPHGSTTYYADSVKGRFTISRDNAKNTVYLQMNSLKPEDTAVYYCHTYYSGSWGQGTQVTVSS
Molecule B3 returned an off-rate constant (koff) in test [1] of 0.33 s⁻¹. In test [9], the Kd is 680 nM.
